Test results taken from IntAct's records for PubMed 25487150.

B1: Protein phosphatase PP2A regulatory subunit B (Schizosaccharomyces pombe (strain ATCC 38366 / 972)), Q12702 (parent)
chain: MDDIEDSLDQWKFAQCFGDKGDVEDITEADIISAVEFDHTGDYLATGDKGGRVVLFERNHSKKGCEYKFFTEFQSHEPEFDYLKSLEIEEKINKIRWCKRTNRAHFLLSTNDKTIKLWKLYEKNLKVVAENNLSDSFHSPMQGPLTTPSQLRLPRLNHHDMIIAAYPRRVYANAHAYHINSISVNSDAETYISADDLRINLWNLSISDHSFNIVDIKPENMEELTEVITSAEFHPINCNHLMYSSSKGNIKLLDLRQSALCDNPCKLFEDQEDQDSKSFFSEIISSISDVKFSQNGRYILSRDYLTLKIWDVNMEKAPVKTIPLHDVLRSKLCDLYENDCIFDKFECTFSGDDKHVLSGSYSNNFGIYPTDSSLPGDRGQIVLQADKAAFRARKSAANNVPKLNAVKNNDWRSQPQAAMGSASVGLDPDNLDYNKKILHASWHPFEDSVAIAATNNLFVFSKL
B2: Spindle pole body-associated protein cut12 (Schizosaccharomyces pombe (strain ATCC 38366 / 972)), O59755 (parent)
chain: MSETLNTPPTYAWVLKAFSSKLAGTVTKPVTKMSSYIEDAESDAELPQDAKEDLRPTETLTPLKSKAAQNGILKTPGTLQIKKTVNFKDISKDAATWNRPTKNNFLFTRLDDENPLMGHEEFKSPLLQSTPKPNINNPDNENKSKHDEFDNRYNININESYKNETKSNQRLGEDVPSKKKYPHSMDAEISKFKWDSNNNNDWSSLMKDCFRDVVNNNRKMKEIIKDVMIDTSQAFPSESLDEPDYTINLDAPRSSSGKYWKQKFSMLDSAHSDLELELTSIRERLESLILEKQEEINFWKQRCRALETEKIHNHQGQQSKYKGKEFVGNRFSQMRELYTAKPSPITTKVVSRPSQSDVREPQEQVPSKNLHRGADMSHLAAQMLTHSSKKSHTTNLIPSEGIISSTPISAASKVRMNLMQSNQTPTPAPFSIAAKKSHLPSKLSFPQDGGSLSSATTLQQLPKARVTPNVLSSLSSNLGKTNPTSVYQSKANVTTSADVEKPQVKVATSSRVDYDLKSPNQRTANAKKRLEERRRRRKLKLQELQLNS

Variants of: B1
Settings: with pp11_schpo dis2, P13681
Target sequence in this assay (P13681 whole entry): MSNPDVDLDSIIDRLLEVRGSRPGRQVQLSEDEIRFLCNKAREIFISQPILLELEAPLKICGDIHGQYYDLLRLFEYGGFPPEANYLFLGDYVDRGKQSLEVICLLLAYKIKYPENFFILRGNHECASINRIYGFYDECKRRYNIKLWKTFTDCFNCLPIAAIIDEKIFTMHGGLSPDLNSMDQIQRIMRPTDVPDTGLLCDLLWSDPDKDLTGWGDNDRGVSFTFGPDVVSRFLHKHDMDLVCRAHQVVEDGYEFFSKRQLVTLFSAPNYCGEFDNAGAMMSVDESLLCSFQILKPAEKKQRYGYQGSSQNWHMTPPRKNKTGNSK

effect of a mutation on the interaction | Variant
disrupting interaction strength | MDDIEDSLDQWKFAQCFGDKGDVEDITEADIISAVEFDHTGDYLATGDKGGAVALAERNHSKKGCEYKFFTEFQSHEPEFDYLKSLEIEEKINKIRWCKRTNRAHFLLSTNDKTIKLWKLYEKNLKVVAENNLSDSFHSPMQGPLTTPSQLRLPRLNHHDMIIAAYPRRVYANAHAYHINSISVNSDAETYISADDLRINLWNLSISDHSFNIVDIKPENMEELTEVITSAEFHPINCNHLMYSSSKGNIKLLDLRQSALCDNPCKLFEDQEDQDSKSFFSEIISSISDVKFSQNGRYILSRDYLTLKIWDVNMEKAPVKTIPLHDVLRSKLCDLYENDCIFDKFECTFSGDDKHVLSGSYSNNFGIYPTDSSLPGDRGQIVLQADKAAFRARKSAANNVPKLNAVKNNDWRSQPQAAMGSASVGLDPDNLDYNKKILHASWHPFEDSVAIAATNNLFVFSKL [R52A;V54A;F56A]
decreasing interaction strength | MDDIEDSLDQWKFAQCFGDKGDVEDITEADIISAVEFDHTGDYLATGDKGGRVALFERNHSKKGCEYKFFTEFQSHEPEFDYLKSLEIEEKINKIRWCKRTNRAHFLLSTNDKTIKLWKLYEKNLKVVAENNLSDSFHSPMQGPLTTPSQLRLPRLNHHDMIIAAYPRRVYANAHAYHINSISVNSDAETYISADDLRINLWNLSISDHSFNIVDIKPENMEELTEVITSAEFHPINCNHLMYSSSKGNIKLLDLRQSALCDNPCKLFEDQEDQDSKSFFSEIISSISDVKFSQNGRYILSRDYLTLKIWDVNMEKAPVKTIPLHDVLRSKLCDLYENDCIFDKFECTFSGDDKHVLSGSYSNNFGIYPTDSSLPGDRGQIVLQADKAAFRARKSAANNVPKLNAVKNNDWRSQPQAAMGSASVGLDPDNLDYNKKILHASWHPFEDSVAIAATNNLFVFSKL [V54A]

Variants of: B2
Settings: with pp11_schpo dis2, P13681
Target sequence in this assay (P13681 whole entry): as the sequence (P13681 whole entry) above

effect of a mutation on the interaction | Variant
decreasing interaction strength | MSETLNTPPTYAWVLKAFSSKLAGTVTKPVTKMSSYIEDAESDAELPQDAKEDLRPTETLTPLKSKAAQNVILKTPGTLQIKKTVNFKDISKDAATWNRPTKNNFLFTRLDDENPLMGHEEFKSPLLQSTPKPNINNPDNENKSKHDEFDNRYNININESYKNETKSNQRLGEDVPSKKKYPHSMDAEISKFKWDSNNNNDWSSLMKDCFRDVVNNNRKMKEIIKDVMIDTSQAFPSESLDEPDYTINLDAPRSSSGKYWKQKFSMLDSAHSDLELELTSIRERLESLILEKQEEINFWKQRCRALETEKIHNHQGQQSKYKGKEFVGNRFSQMRELYTAKPSPITTKVVSRPSQSDVREPQEQVPSKNLHRGADMSHLAAQMLTHSSKKSHTTNLIPSEGIISSTPISAASKVRMNLMQSNQTPTPAPFSIAAKKSHLPSKLSFPQDGGSLSSATTLQQLPKARVTPNVLSSLSSNLGKTNPTSVYQSKANVTTSADVEKPQVKVATSSRVDYDLKSPNQRTANAKKRLEERRRRRKLKLQELQLNS [G71V]
disrupting interaction strength | MSETLNTPPTYAWVLKAFSSKLAGTVTKPVTKMSSYIEDAESDAELPQDAKEDLRPTETLTPLKSKAAQNVILKTPGTLQIKATANAKDISKDAATWNRPTKNNFLFTRLDDENPLMGHEEFKSPLLQSTPKPNINNPDNENKSKHDEFDNRYNININESYKNETKSNQRLGEDVPSKKKYPHSMDAEISKFKWDSNNNNDWSSLMKDCFRDVVNNNRKMKEIIKDVMIDTSQAFPSESLDEPDYTINLDAPRSSSGKYWKQKFSMLDSAHSDLELELTSIRERLESLILEKQEEINFWKQRCRALETEKIHNHQGQQSKYKGKEFVGNRFSQMRELYTAKPSPITTKVVSRPSQSDVREPQEQVPSKNLHRGADMSHLAAQMLTHSSKKSHTTNLIPSEGIISSTPISAASKVRMNLMQSNQTPTPAPFSIAAKKSHLPSKLSFPQDGGSLSSATTLQQLPKARVTPNVLSSLSSNLGKTNPTSVYQSKANVTTSADVEKPQVKVATSSRVDYDLKSPNQRTANAKKRLEERRRRRKLKLQELQLNS [G71V;K83A;V85A;F87A]
decreasing interaction strength | MSETLNTPPTYAWVLKAFSSKLAGTVTKPVTKMSSYIEDAESDAELPQDAKEDLRPTETLTPLKSKAAQNGLLRTPGTLQIKKTANAKDISKDAATWNRPTKNNFLFTRLDDENPLMGHEEFKSPLLQSTPKPNINNPDNENKSKHDEFDNRYNININESYKNETKSNQRLGEDVPSKKKYPHSMDAEISKFKWDSNNNNDWSSLMKDCFRDVVNNNRKMKEIIKDVMIDTSQAFPSESLDEPDYTINLDAPRSSSGKYWKQKFSMLDSAHSDLELELTSIRERLESLILEKQEEINFWKQRCRALETEKIHNHQGQQSKYKGKEFVGNRFSQMRELYTAKPSPITTKVVSRPSQSDVREPQEQVPSKNLHRGADMSHLAAQMLTHSSKKSHTTNLIPSEGIISSTPISAASKVRMNLMQSNQTPTPAPFSIAAKKSHLPSKLSFPQDGGSLSSATTLQQLPKARVTPNVLSSLSSNLGKTNPTSVYQSKANVTTSADVEKPQVKVATSSRVDYDLKSPNQRTANAKKRLEERRRRRKLKLQELQLNS [I72L;K74R;V85A;F87A]
decreasing interaction strength | MSETLNTPPTYAWVLKAFSSKLAGTVTKPVTKMSSYIEDAESDAELPQDAKEDLRPTETLTPLKSKAAQNGILKTPGTLQIKKTANAKDISKDAATWNRPTKNNFLFTRLDDENPLMGHEEFKSPLLQSTPKPNINNPDNENKSKHDEFDNRYNININESYKNETKSNQRLGEDVPSKKKYPHSMDAEISKFKWDSNNNNDWSSLMKDCFRDVVNNNRKMKEIIKDVMIDTSQAFPSESLDEPDYTINLDAPRSSSGKYWKQKFSMLDSAHSDLELELTSIRERLESLILEKQEEINFWKQRCRALETEKIHNHQGQQSKYKGKEFVGNRFSQMRELYTAKPSPITTKVVSRPSQSDVREPQEQVPSKNLHRGADMSHLAAQMLTHSSKKSHTTNLIPSEGIISSTPISAASKVRMNLMQSNQTPTPAPFSIAAKKSHLPSKLSFPQDGGSLSSATTLQQLPKARVTPNVLSSLSSNLGKTNPTSVYQSKANVTTSADVEKPQVKVATSSRVDYDLKSPNQRTANAKKRLEERRRRRKLKLQELQLNS [V85A;F87A]
